Measured values as given in publication PMC4102243, “Rett-causing mutations reveal two domains critical for MeCP2 function and for toxicity in MECP2 duplication syndrome mice”.

Target: MeCP2 C-terminal fragment WT (human, UniProt P51608 274-340)
Assay: EMSA; 10 mM Tris-HCl pH 7.4, 50 mM KCl, 0.5 mM MgCl2, 0.1 mM EDTA, 5% glycerol, 0.1 mg/ml BSA, 66.7 nM probe, room temperature 30 min; 1% agarose gel, 1X TAE, 4 C
Conditions: protein: recombinant; tags: N-terminal GST (pGEX-5x3); label: none (ethidium bromide post-stain); blunt

Chain of MeCP2 C-terminal fragment WT (P51608 274-340): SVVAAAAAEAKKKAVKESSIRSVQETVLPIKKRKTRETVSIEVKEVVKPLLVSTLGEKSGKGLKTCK

B1: 64-bp EMSA probe (dsDNA)
DNA 1: GGACTCCAGGTCCAGGACCGCGTTTTTCGCGCGCACGGCGCGGGAGGTCCAGCTGTCCACCTCC
DNA 2: GGAGGTGGACAGCTGGACCTCCCGCGCCGTGCGCGCGAAAAACGCGGTCCTGGACCTGGAGTCC
B1: binds.
